The results in this text go back to patent publication US20100003195A1 (published 2010).

The chains are these.
T1: human KDR-Fc chimeric fusion (R&D Systems #357-KD-05) (human, UniProt P35968 20-764)
T1 chain: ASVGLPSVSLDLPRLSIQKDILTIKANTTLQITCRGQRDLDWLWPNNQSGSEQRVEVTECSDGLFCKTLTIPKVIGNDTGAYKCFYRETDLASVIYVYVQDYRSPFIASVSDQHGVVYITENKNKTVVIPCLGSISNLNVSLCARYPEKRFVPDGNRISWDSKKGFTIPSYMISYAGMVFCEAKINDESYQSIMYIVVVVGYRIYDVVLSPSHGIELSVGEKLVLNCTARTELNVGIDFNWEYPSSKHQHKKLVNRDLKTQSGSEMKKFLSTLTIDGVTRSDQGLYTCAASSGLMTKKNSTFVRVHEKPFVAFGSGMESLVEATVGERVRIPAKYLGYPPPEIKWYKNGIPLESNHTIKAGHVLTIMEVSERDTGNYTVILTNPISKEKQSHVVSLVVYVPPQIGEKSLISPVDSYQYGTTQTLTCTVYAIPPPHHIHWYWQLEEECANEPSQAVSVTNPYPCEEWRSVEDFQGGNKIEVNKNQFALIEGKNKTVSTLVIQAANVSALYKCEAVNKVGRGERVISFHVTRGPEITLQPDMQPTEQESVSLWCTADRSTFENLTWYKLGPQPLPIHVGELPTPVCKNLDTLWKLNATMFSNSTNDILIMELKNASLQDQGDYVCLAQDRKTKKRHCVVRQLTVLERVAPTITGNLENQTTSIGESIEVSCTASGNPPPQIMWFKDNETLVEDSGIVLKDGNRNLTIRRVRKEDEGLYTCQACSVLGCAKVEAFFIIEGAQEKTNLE

This experiment concerns the target T1, human KDR-Fc chimeric fusion (R&D …). The experiment in a line: -; KD, B.
The molecule VCWEDSWGGEVCFGGGK [VCWEDSWGGEVCFGGGK (SEQ ID NO: 368)] displayed a Kd of 910 nM.

Turning to SRVCWEDSWGGEVCFRYGGGGK [SRVCWEDSWGGEVCFRYGGGGK (SEQ ID NO: 371)], the Kd was found to be 35 nM.

On to GDSRVCWEDSWGGEVCFGGGK [GDSRVCWEDSWGGEVCFGGGK (SEQ ID NO: 369)], for which binding was characterised by a dissociation constant (Kd) of 1300 nM.
